Experimental findings from the supplement of paper PMC9112550, “Optimization of the antimicrobial peptide Bac7 by deep mutational scanning” (BMC Biology, 2022) are described below.

This data set relates to Escherichia coli TOP10. Kind of data set: shrunken log2 fold change of peptide-encoding DNA abundance (4.5 h post-induction vs induction); higher = less antimicrobial activity (less host growth inhibition). The note with it: time post-induction: 4.5 h; library: site-saturation at positions 5, 18, 19, 20.
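Note: peptides expressed intracellularly from a pBAD plasmid library in pooled LB shake-flask culture, induced with 0.3% L-arabinose, DNA abundance read by NGS, three biological replicates, DESeq2 with apeglm shrinkage.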

With RRIRDRPPRLPRPRPRPITSPRP, the “shrunken log2 fold change” value is -0.00293.

On to RRIRLRPPRLPRPRPRPQCDPRP, for which the “shrunken log2 fold change” value is -0.118.

As to RRIRMRPPRLPRPRPRPMQMPRP, the “shrunken log2 fold change” value was found to be 0.671.

Take RRIRLRPPRLPRPRPRPWCWPRP: the “shrunken log2 fold change” value is 0.0542.

For RRIRQRPPRLPRPRPRPNNNPRP, the “shrunken log2 fold change” value is -0.825.

With RRIRGRPPRLPRPRPRPINEPRP, the “shrunken log2 fold change” value was 0.0939.

Turning to RRIRDRPPRLPRPRPRPFKCPRP, the “shrunken log2 fold change” value was found to be 0.0039.

Take RRIRTRPPRLPRPRPRPMIRPRP: the “shrunken log2 fold change” value was -0.0798.

In the case of RRIRWRPPRLPRPRPRPWMMPRP, the “shrunken log2 fold change” value came out at 0.119.

Take RRIRGRPPRLPRPRPRPLKAPRP: the “shrunken log2 fold change” value amounted to 0.0177.

As for RRIRLRPPRLPRPRPRPFSHPRP, the “shrunken log2 fold change” value is -0.262.

Regarding RRIRLRPPRLPRPRPRPKDYPRP, the “shrunken log2 fold change” value was -0.0534.

On to RRIRHRPPRLPRPRPRPAYEPRP, for which the “shrunken log2 fold change” value was determined as 0.0981.

On to RRIRDRPPRLPRPRPRPRYHPRP, for which the “shrunken log2 fold change” value was -0.0202.

As to RRIRMRPPRLPRPRPRPMYYPRP, the “shrunken log2 fold change” value is -0.339.

With RRIRLRPPRLPRPRPRPENRPRP, the “shrunken log2 fold change” value was determined as 0.097.

For the sequence RRIRQRPPRLPRPRPRPGPWPRP, the “shrunken log2 fold change” value was determined as 0.479.

For the sequence RRIRTRPPRLPRPRPRPPMIPRP, the “shrunken log2 fold change” value was -0.44.

For RRIRARPPRLPRPRPRPMIHPRP, the “shrunken log2 fold change” value was -0.119.

As to RRIRARPPRLPRPRPRPWPAPRP, the “shrunken log2 fold change” value is 0.17.

Turning to RRIRYRPPRLPRPRPRPAELPRP, the “shrunken log2 fold change” value was -0.187.

Consider RRIRWRPPRLPRPRPRPKQLPRP, for which the “shrunken log2 fold change” value is -0.0021.

RRIRHRPPRLPRPRPRPRWRPRP: the “shrunken log2 fold change” value came to 0.355.

On to RRIRIRPPRLPRPRPRPEHYPRP, for which the “shrunken log2 fold change” value was -0.295.

For the sequence RRIRYRPPRLPRPRPRPCHAPRP, the “shrunken log2 fold change” value is -0.702.

With RRIRWRPPRLPRPRPRPATHPRP, the “shrunken log2 fold change” value was 0.0538.

Regarding RRIRTRPPRLPRPRPRPSADPRP, the “shrunken log2 fold change” value was -0.0419.

For RRIRGRPPRLPRPRPRPGKLPRP, the “shrunken log2 fold change” value is 0.461.

On to RRIRRRPPRLPRPRPRPQIQPRP, for which the “shrunken log2 fold change” value amounted to 0.151.

Take RRIRPRPPRLPRPRPRPEMGPRP: the “shrunken log2 fold change” value worked out at 0.268.

For RRIRCRPPRLPRPRPRPGMQPRP, the “shrunken log2 fold change” value was -0.255.

For RRIRLRPPRLPRPRPRPPSAPRP, the “shrunken log2 fold change” value was 0.654.

Take RRIRCRPPRLPRPRPRPGPCPRP: the “shrunken log2 fold change” value was determined as 0.0993.

As for RRIRSRPPRLPRPRPRPKIGPRP, the “shrunken log2 fold change” value is -0.0115.

Take RRIRGRPPRLPRPRPRPCEWPRP: the “shrunken log2 fold change” value was -0.01.

Turning to RRIRIRPPRLPRPRPRPFEEPRP, the “shrunken log2 fold change” value is -0.569.

RRIRSRPPRLPRPRPRPDNTPRP: the “shrunken log2 fold change” value is -0.44.

With RRIRYRPPRLPRPRPRPSPTPRP, the “shrunken log2 fold change” value is -0.167.

On to RRIRHRPPRLPRPRPRPAKRPRP, for which the “shrunken log2 fold change” value was -0.132.

In the case of RRIRNRPPRLPRPRPRPVYWPRP, the “shrunken log2 fold change” value was found to be 0.0175.

Turning to RRIRKRPPRLPRPRPRPIVPPRP, the “shrunken log2 fold change” value stood at 0.269.

Consider RRIRERPPRLPRPRPRPTKFPRP, for which the “shrunken log2 fold change” value is -0.364.

RRIRNRPPRLPRPRPRPVHWPRP: the “shrunken log2 fold change” value was determined as 0.384.

For RRIRSRPPRLPRPRPRPYTNPRP, the “shrunken log2 fold change” value is -1.46.

Consider RRIRKRPPRLPRPRPRPGAYPRP, for which the “shrunken log2 fold change” value worked out at 0.0945.

Consider RRIRARPPRLPRPRPRPMNMPRP, for which the “shrunken log2 fold change” value is -0.0785.

On to RRIRDRPPRLPRPRPRPNTQPRP, for which the “shrunken log2 fold change” value amounted to 0.0704.

For the sequence RRIRSRPPRLPRPRPRPAWRPRP, the “shrunken log2 fold change” value turned out to be 0.567.

Regarding RRIRGRPPRLPRPRPRPHPKPRP, the “shrunken log2 fold change” value came to 0.865.

For the sequence RRIRNRPPRLPRPRPRPAEPPRP, the “shrunken log2 fold change” value is -0.00965.

RRIRKRPPRLPRPRPRPALDPRP: the “shrunken log2 fold change” value amounted to 0.772.

RRIRNRPPRLPRPRPRPVWCPRP: the “shrunken log2 fold change” value is -0.226.

For RRIRYRPPRLPRPRPRPKRRPRP, the “shrunken log2 fold change” value worked out at 0.0144.

In the case of RRIRARPPRLPRPRPRPLWTPRP, the “shrunken log2 fold change” value is 0.115.

RRIRRRPPRLPRPRPRPHIKPRP: the “shrunken log2 fold change” value is -0.43.

As for RRIRLRPPRLPRPRPRPIWCPRP, the “shrunken log2 fold change” value was -0.0514.

As to RRIRTRPPRLPRPRPRPLNDPRP, the “shrunken log2 fold change” value was -0.192.

On to RRIRKRPPRLPRPRPRPPAMPRP, for which the “shrunken log2 fold change” value came out at 0.635.

As for RRIRNRPPRLPRPRPRPYFRPRP, the “shrunken log2 fold change” value is -0.766.

Regarding RRIRIRPPRLPRPRPRPFCFPRP, the “shrunken log2 fold change” value is -0.33.

Turning to RRIRERPPRLPRPRPRPANAPRP, the “shrunken log2 fold change” value is -0.0563.

For RRIRARPPRLPRPRPRPRIFPRP, the “shrunken log2 fold change” value came to 0.213.

On to RRIRNRPPRLPRPRPRPCNMPRP, for which the “shrunken log2 fold change” value is -0.0735.

For RRIRNRPPRLPRPRPRPYNAPRP, the “shrunken log2 fold change” value was -1.54.

For RRIRDRPPRLPRPRPRPMSKPRP, the “shrunken log2 fold change” value came to 0.101.

On to RRIRTRPPRLPRPRPRPAMSPRP, for which the “shrunken log2 fold change” value turned out to be 0.00971.

For RRIRERPPRLPRPRPRPQYKPRP, the “shrunken log2 fold change” value is -0.675.

As for RRIRLRPPRLPRPRPRPWWRPRP, the “shrunken log2 fold change” value stood at 0.197.

RRIRWRPPRLPRPRPRPNIDPRP: the “shrunken log2 fold change” value is -0.21.

On to RRIRYRPPRLPRPRPRPQFQPRP, for which the “shrunken log2 fold change” value is -0.718.

Turning to RRIRQRPPRLPRPRPRPMPEPRP, the “shrunken log2 fold change” value is -0.237.

In the case of RRIRPRPPRLPRPRPRPSISPRP, the “shrunken log2 fold change” value is -0.37.

As to RRIRDRPPRLPRPRPRPILNPRP, the “shrunken log2 fold change” value was -0.184.

For the sequence RRIRCRPPRLPRPRPRPPWRPRP, the “shrunken log2 fold change” value worked out at 0.751.

Regarding RRIRKRPPRLPRPRPRPHKIPRP, the “shrunken log2 fold change” value stood at 0.134.

Consider RRIRMRPPRLPRPRPRPRGLPRP, for which the “shrunken log2 fold change” value came out at 0.727.

As for RRIRCRPPRLPRPRPRPNSTPRP, the “shrunken log2 fold change” value was -0.76.

Turning to RRIRNRPPRLPRPRPRPYENPRP, the “shrunken log2 fold change” value was -0.0659.

For the sequence RRIRSRPPRLPRPRPRPMNNPRP, the “shrunken log2 fold change” value is -0.479.

With RRIRERPPRLPRPRPRPFDFPRP, the “shrunken log2 fold change” value is -0.146.

Consider RRIRYRPPRLPRPRPRPHNSPRP, for which the “shrunken log2 fold change” value is -0.753.

Turning to RRIRSRPPRLPRPRPRPTGAPRP, the “shrunken log2 fold change” value was 0.633.

Regarding RRIRERPPRLPRPRPRPVSTPRP, the “shrunken log2 fold change” value is -0.199.

Regarding RRIRQRPPRLPRPRPRPVMCPRP, the “shrunken log2 fold change” value is -0.119.

Take RRIRMRPPRLPRPRPRPRTNPRP: the “shrunken log2 fold change” value is 0.295.

In the case of RRIRHRPPRLPRPRPRPNDVPRP, the “shrunken log2 fold change” value was -0.0131.

As to RRIRWRPPRLPRPRPRPCRMPRP, the “shrunken log2 fold change” value is -0.0166.

On to RRIRWRPPRLPRPRPRPTNFPRP, for which the “shrunken log2 fold change” value was 0.0339.

Regarding RRIRRRPPRLPRPRPRPRIFPRP, the “shrunken log2 fold change” value came to 0.0808.

Take RRIRARPPRLPRPRPRPTIAPRP: the “shrunken log2 fold change” value turned out to be 0.687.

Turning to RRIRTRPPRLPRPRPRPMWPPRP, the “shrunken log2 fold change” value was -0.0463.

Regarding RRIRQRPPRLPRPRPRPKNFPRP, the “shrunken log2 fold change” value was -0.0816.

With RRIRSRPPRLPRPRPRPYSTPRP, the “shrunken log2 fold change” value was -1.05.

As to RRIRIRPPRLPRPRPRPFVKPRP, the “shrunken log2 fold change” value is -0.691.

RRIRWRPPRLPRPRPRPYTFPRP: the “shrunken log2 fold change” value was found to be 0.0563.

In the case of RRIRARPPRLPRPRPRPYMQPRP, the “shrunken log2 fold change” value was -0.53.

Take RRIRWRPPRLPRPRPRPCSKPRP: the “shrunken log2 fold change” value was -0.0575.

On to RRIRNRPPRLPRPRPRPNEIPRP, for which the “shrunken log2 fold change” value turned out to be 0.145.

Take RRIRARPPRLPRPRPRPETKPRP: the “shrunken log2 fold change” value was found to be 1.27.

Take RRIRNRPPRLPRPRPRPFIWPRP: the “shrunken log2 fold change” value was -0.741.

With RRIRERPPRLPRPRPRPAGSPRP, the “shrunken log2 fold change” value was -0.202.

For the sequence RRIRIRPPRLPRPRPRPHLWPRP, the “shrunken log2 fold change” value is -0.256.

Regarding RRIRQRPPRLPRPRPRPAKMPRP, the “shrunken log2 fold change” value was -0.207.

RRIRARPPRLPRPRPRPTQMPRP: the “shrunken log2 fold change” value is 0.563.

On to RRIRVRPPRLPRPRPRPYAVPRP, for which the “shrunken log2 fold change” value was -0.481.

In the case of RRIRQRPPRLPRPRPRPLGMPRP, the “shrunken log2 fold change” value was -0.218.

Turning to RRIRERPPRLPRPRPRPEFNPRP, the “shrunken log2 fold change” value is -0.633.

In the case of RRIRMRPPRLPRPRPRPVDEPRP, the “shrunken log2 fold change” value was -0.00101.

For the sequence RRIRGRPPRLPRPRPRPGHYPRP, the “shrunken log2 fold change” value is 0.00558.

As to RRIRTRPPRLPRPRPRPMQFPRP, the “shrunken log2 fold change” value was -0.0258.

With RRIRDRPPRLPRPRPRPFTQPRP, the “shrunken log2 fold change” value was -0.147.

Regarding RRIRNRPPRLPRPRPRPIYPPRP, the “shrunken log2 fold change” value is -0.246.

On to RRIRERPPRLPRPRPRPRPGPRP, for which the “shrunken log2 fold change” value worked out at 0.464.

As to RRIRDRPPRLPRPRPRPGHIPRP, the “shrunken log2 fold change” value was -0.0814.

On to RRIRDRPPRLPRPRPRPTRRPRP, for which the “shrunken log2 fold change” value amounted to 0.206.

As to RRIRYRPPRLPRPRPRPEWFPRP, the “shrunken log2 fold change” value is -0.0405.

For the sequence RRIRERPPRLPRPRPRPLTTPRP, the “shrunken log2 fold change” value was -0.395.

As for RRIRARPPRLPRPRPRPWHQPRP, the “shrunken log2 fold change” value is 0.0524.

Consider RRIRTRPPRLPRPRPRPCAVPRP, for which the “shrunken log2 fold change” value was -0.262.

Regarding RRIRKRPPRLPRPRPRPPVFPRP, the “shrunken log2 fold change” value is -0.00134.

Turning to RRIRDRPPRLPRPRPRPRYKPRP, the “shrunken log2 fold change” value was -0.202.

For the sequence RRIRRRPPRLPRPRPRPSRAPRP, the “shrunken log2 fold change” value was 0.369.

As to RRIRERPPRLPRPRPRPHQSPRP, the “shrunken log2 fold change” value was -0.0234.

On to RRIRGRPPRLPRPRPRPEFHPRP, for which the “shrunken log2 fold change” value came out at 1.85.

On to RRIRCRPPRLPRPRPRPSCYPRP, for which the “shrunken log2 fold change” value was -0.295.
